Measurements as given in PMC3828196 (PLoS ONE, 2013).
“Also recorded” adds a separate entry of the source. Like-named read-outs stand apart in the source and are kept apart here.

Legend:
[1] = target: T1, EcDsbA (Escherichia coli, UniProt P0AEG4); assay: biochemical; assay type: binding, E. coli; conditions: ITC; range stated for KpDsbA and EcDsbA with […] and […] together; read-out: Kd (range over both peptides and both DsbAs)
T1 construct: lacking the periplasmic leader signal were purified as described for KpDsbA; His6-TEV leader (inferred: same procedure as KpDsbA) (N, cleaved yes); made in house; host or cells: E. coli BL21(DE3)pLys (inferred from 'as described for KpDsbA')
Experimental: (§1) Amidation and acetylation ensure that there are no charges on the peptide termini, as these are not present in the native DsbB loop sequence. Binding affinity was measured using a MicroCal™ Auto-iTC200 from (GE Healthcare, USA) at 25 °C. The sample cell was loaded with 200 μL of 100 μM KpDsbA or EcDsbA in 25 mM HEPES, 50 mM NaCl, pH 7.4, and DMSO 0.8 %. The peptide (3 mM) diluted in the same buffer was titrated with an initial injection of 0.5 μL into DsbA, followed by 19 consecutive injections (2.0 μL) offset by 180 s, while the solution was constantly stirred (1000 rpm). Data were fitted to a single-site binding model using MicroCal™ Origin 7.0 software (Origin 7 SR4 v7.0552).

[2] = target: KpDsbA; assay: ITC binding of DsbB-derived peptides to KpDsbA; design: species or system K. pneumoniae
Experimental: as §1, with “v7.0552). Experiments were conducted in triplicate and affinity and thermodynamic parameters are reported as means and standard deviations (Table 4).” for “v7.0552).”

[3] = test system: E. coli dsbA- null (JCB817); assay: Complementation swarming assay, dsbA- null strain JCB817; conditions: pBAD33, arabinose-induced; soft M63 minimal agar, 37 °C, 3-7 h; biological triplicates
Experimental: The ability of KpDsbA to rescue non-motile E. coli dsbA ^- null (JCB817) and dsbA ^-/dsbB ^- double-null (JCB818) strains was assessed in a cell-swarming assay as described previously [16]. The mature KpDsbA coding sequence was cloned into pBAD33 under an arabinose inducible promotor with the EcDsbA periplasmic signal sequence. A wild-type EcDsbA cloned into pBAD33 vector was used as a positive control. Non-motile E. coli dsbA ^- deficient (JCB817) or dsbA ^- / dsbB ^- double-mutant (JCB818) [3] cells (2x10^6) transformed with a KpDsbA or EcDsbA pBAD33 inducible vector were spotted onto the center of a soft M63 minimal agar plate containing 40 mg/mL of each amino acid (except L-cysteine). Plates were incubated at 37 °C and motility of cells monitored using a Molecular Imager® Gel Doc™ system from BIO-RAD (CA 94547, USA) after 3-7 h. Complementation experiments were repeated as biological triplicates.

[4] = In vitro peptide dithiol oxidation (europium fluorescence); assay type: biochemical; conditions: samples lacking EcDsbB, DsbA plus peptide; pH 5.5; time-resolved fluorescence
Experimental: A peptide ([…]) with a 1,4,7,10-tetraazacyclododecane-1,4,7,10-tetraacetic acid (DOTA) group amide-coupled to the N-terminus, and a methylcoumarin amide-coupled to the ε-amino group of the C-terminal lysine, was purchased from AnaSpec (Fremont, CA). Lyophilized peptide was re-suspended in 100 mM imidazole, pH 6, at a concentration of 2 mM. Europium trifluoromethanesulfonate (Sigma Aldrich, Australia) solution (100 mM) was added to the peptide at a molar ratio of 2:1 and incubated for 5 min at room temperature, to allow europium chelation. The peptide solution was then immediately aliquoted, flash frozen in liquid nitrogen and stored at -80°C. An increase in fluorescence occurs upon oxidation of the peptide cysteines to form a disulfide. Thus, fluorescence can be used to monitor the capacity of DsbA enzymes to catalyse dithiol oxidation.
Assays were conducted using a Synergy H1 multimode plate reader (BioTek, USA) with the excitation wavelength set to 340 nm and emission to 615 nm. A 150 μs delay before reading and 100 μs reading time were used for time-resolved fluorescence. The assay was performed in a white 384-well plate (Perkin Elmer OptiPlate-384, Part #: 6007290). The buffer consisted of 50 mM MES, 50 mM NaCl and 2 mM EDTA at pH 5.5. The reaction consisted of a 50 μL solution in each well, containing 160 nM EcDsbA, KpDsbA or SeDsbA, 1.6 μM EcDsbB (crude membrane extracts, containing ubiquinone) and 8 μM peptide substrate added last to initiate the reaction. Samples containing buffer and DsbA or buffer and peptide were used as controls. Data were measured for three replicates and are presented as mean values, with the standard error of the mean indicated by error bars.

[5] = test system: insulin; conditions: cited from earlier work
[6] = test system: insulin; assay: Insulin disulfide reductase activity; assay type: biochemical; conditions: 10 μM enzyme, 0.33 mM DTT, 2 mM EDTA, 100 mM phosphate pH 7.0, 0.131 mM insulin; OD650nm turbidity; three repeats
Experimental: Under mild reducing conditions, DsbA proteins can reduce the intermolecular disulfide bonds formed between insulin chains A and B [3]. The rate of disulfide bond reduction can be spectroscopically followed at OD650nm by an increase in turbidity resulting from production of the insoluble insulin chain B [20]. Samples were prepared in 1 cm cuvettes containing 10 μM of protein (KpDsbA, EcDsbA or EcDsbC), 0.33 mM DTT and 2 mM EDTA in 100 mM NaH2PO4 / Na2HPO4 titrated to pH 7.0. Catalysis was initiated by the addition of 0.131 mM insulin (I0516, Sigma-Aldrich, Australia) to the sample mixture. The assay was repeated three times and data were plotted showing standard deviations.

[7] = EcDsbA, cited from earlier work
Text: The past 5 years has seen the characterization of DsbA enzymes from many other bacteria including DsbAs with varying degrees of sequence identity to EcDsbA such as Neisseria meningitidis DsbA1 (NmDsbA1, 23% identity), Pseudomonas aerugin ... || EcDsbA and SeDsbA share 86 % sequence identity and both have been characterized previously. […] Both are similarly oxidizing enzymes: the redox potentials of EcDsbA and SeDsbA are -122 and -126 mV, respectively, whereas the range for all DsbAs is -80 to -163 mV (Table 1 ). In b ... || (+ 1 further places)

Molecule: CC(=O)N1CCC[C@H]1C(=O)N[C@@H](CO)C(=O)N1CCC[C@H]1C(=O)N[C@@H](Cc1ccccc1)C(=O)N[C@@H](CCC(N)=O)C(=O)N[C@H](C(=O)N[C@@H](CS)C(=O)N[C@@H](CC(=O)O)C(N)=O)[C@@H](C)O
- Kd [1]: 11 to 18 µM
- Kd ([2]; ITC (Auto-iTC200), cell 100 μM KpDsbA, peptide 3 mM, 25 mM HEPES, 50 mM NaCl, pH 7.4, DMSO 0.8 %, 25 °C in method, 20 °C in table footnote, single-site model, apparent Kd, mean ± SD, three independent experiments, read-out: Kd): 16.7 ± 0.6 µM
- Kd ([2]; ITC, range stated for KpDsbA and EcDsbA with PSPFATCD and PSPFQTCD together, read-out: Kd (range over both peptides and both DsbAs)): 11 to 18 µM

B1: EcDsbA: Escherichia coli DsbA (CAA56736) (protein)
chain: AQYEDGKQYTTLEKPVAGAPQVLEFFSFFCPHCYQFEEVLHISDNVKKKLPEGVKMTKYHVNFMGGDLGKDLTQAWAVAMALGVEDKVTVPLFEGVQKTQTIRSASDIRDVFINAGIKGEEYDAAWNSFVVKSLVAQQEKAAADVQLRGVPAMFVNGKYQLNPQGMDTSNMDVFVQQYADTVKYLSEKK
- restoration of motility (swarming) [3]: can rescue the swarming
- dithiol oxidation signal without EcDsbB [4]: no increase in signal
- insulin reductase activity [5]: weak disulfide reductants; also recorded: weak insulin reductase activity
- insulin disulfide reductase activity [6]: weak insulin reductase activity
- E°’ (redox potential) ([7]; Table 1, ref [6], [14]): -122 mV
- Tm oxidized ([7]; Table 1, ref [6], [14]): 341 K
- Tm reduced ([7]; Table 1, ref [6], [14]): 350 K
- pKa “Cys30” ([7]; Table 1 and comparison, ref [6], [14]): 3.3
- pKa of nucleophilic cysteine ([7]; introduction, ref [9]): 3.3
- Tm oxidized ([7]; with spread, ref [7]): 341.7 ± 0.2 K
- Tm reduced ([7]; with spread, ref [7]): 350.9 ± 0.2 K
- pKa of nucleophilic cysteine ([7]; ref [7]): 3.3
- redox potential ([7]; ref [9]): -122 mV
- Tm oxidized ([7]; ref [13]): 341 K
- Tm reduced ([7]; ref [13]): 350 K
